Changes are numbered by the printed parent chain.

Sequences and labels used below:
T1: hiR2-FL-K536-T7 (deletion of K536) (human, UniProt Q6PJF5 1-856)
T1 construct: single amino acid deletion
T1 sequence: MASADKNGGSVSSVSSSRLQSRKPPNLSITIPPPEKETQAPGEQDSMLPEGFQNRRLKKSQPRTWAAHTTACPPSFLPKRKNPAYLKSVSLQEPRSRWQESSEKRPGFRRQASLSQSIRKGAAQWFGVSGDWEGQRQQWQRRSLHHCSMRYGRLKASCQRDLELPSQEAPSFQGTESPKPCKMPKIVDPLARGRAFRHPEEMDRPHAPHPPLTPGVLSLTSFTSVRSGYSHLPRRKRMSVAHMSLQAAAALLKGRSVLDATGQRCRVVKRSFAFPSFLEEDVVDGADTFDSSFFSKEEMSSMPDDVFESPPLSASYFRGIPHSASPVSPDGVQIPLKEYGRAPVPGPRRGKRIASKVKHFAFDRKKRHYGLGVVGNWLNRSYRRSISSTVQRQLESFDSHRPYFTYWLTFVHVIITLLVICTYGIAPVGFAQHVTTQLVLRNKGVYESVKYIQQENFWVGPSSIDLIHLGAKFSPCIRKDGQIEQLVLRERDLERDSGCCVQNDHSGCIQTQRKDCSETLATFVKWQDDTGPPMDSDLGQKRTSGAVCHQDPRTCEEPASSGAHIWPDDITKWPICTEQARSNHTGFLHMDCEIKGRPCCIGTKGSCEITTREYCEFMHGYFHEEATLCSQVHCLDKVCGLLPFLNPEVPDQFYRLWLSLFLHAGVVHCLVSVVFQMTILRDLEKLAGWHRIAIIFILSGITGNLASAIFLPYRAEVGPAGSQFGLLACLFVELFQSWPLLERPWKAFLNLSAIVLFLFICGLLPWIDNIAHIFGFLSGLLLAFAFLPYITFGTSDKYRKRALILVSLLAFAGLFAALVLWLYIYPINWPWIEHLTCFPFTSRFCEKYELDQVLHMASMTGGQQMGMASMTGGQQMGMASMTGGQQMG

B1: antibody 16 (antibody, V domains shown)
VH: QVTLKESGPGILQPSQTLSLTCSFSGFSLSTFALGVGWIRQPSGRGLEWLAHIWWDDDKYYNPALKSRLTISKDTSKNHVFLKIANVDTADTATYYCARITTYYYGMDYWGQGTSVTVSS
VL: DIVLSQSPATLSVTPGDSVSLFCRASQSIGNHLHWYQQESHASPRLLIKYASQSISGIPSRFSGSGSGTDFTLSINSVETEDFGMYFCQQSYNWPLTFGAGTKLELK
notes: mouse IgG, kappa light chain; also called clone #16; purified antibody 16
B2: antibody 3 (antibody, V domains shown)
VH: QVTLKESGPGILQPSQTLSLTCSFSGFSLTTFAMGIGWVRQPSGKGLEWLAHIWWDGEKYNNPVLKSRLTISKDTSKNQVFLRIANVDTPDTATYYCARISSIYYIIDNWGQGTSVTVSS
VL: B1 VL with S5T, D17H, F22S, G30S, H32N, Q38K, E39K, A42E, A51V
notes: mouse IgG, kappa light chain; also called clone #3; purified antibody 3
B3: antibody 5 (antibody, V domains shown)
VH: QVTLKESGPGILQPSQTLSLTCSFSGFSLSTFGMGVGWIRQPSGKGLEWLAHIWWDDEKYYNSALKSRLTISKATSKNQAFLKIANVDTADTATYYCARISNYGSNYWYFNVWGTGTTVTVSS
VL: QVVLTQSPALMSASPGEKVTMTCSAGSSVSCMYWYQQKPGSSPRVLIYDTSNLASGVPARFTGSGSGTSYSLTISRMEAEDAASYYCQQWNSYPLTFGAGTKLELK
notes: mouse IgG, kappa light chain; also called clone #5; purified antibody 5
B4: antibody 44 (antibody, V domains shown)
VH: B3 VH with G44E, E58D, S63P, A74D, A80I, A85T, D91E, A98S, S101G, N111D
VL: QIVLTQSPAVMSASPGEKVTMTCTASSSVYYMYWYQQTPGSSPRLLIYDTSNLASGVPVRFSGSGSGTSYSLTISRMEAEDAATYYCQQWNTYPLTFGAGTKLELK
notes: mouse IgG, kappa light chain; also called clone #44; purified antibody 44
B5: antibody 43 (antibody, V domains shown)
VH: B3 VH with T3A, P42S, H52N, E58D, S63P, A74D, T75A, S101G, N111D
VL: QIVLTQSPAIMSASPGERVTMTCSANSRISYMYWYQQKPGSSPRLLIYDTSNLASGVPVRFSGSGSGTSYSLTISRMEAEDAATYNCQQWSSYPLTFGAGTKLELK
notes: mouse IgG, kappa light chain; also called clone #43; purified antibody 43
B6: antibody 42 (antibody, V domains shown)
VH: B3 VH with F24L, M34R, S63P, A74D, A80V, K83R, S101Q, N111D
VL: B5 VL with Q1L, R18K, S24G, N26T, Y33F, L45V, M77V, A82V, N86Y, S91N
notes: mouse IgG, kappa light chain; also called clone #42; purified antibody 42
B7: antibody 22 (antibody, V domains shown)
VH: B3 VH with A80V
VL: B3 VL with C31Y, S84T
notes: mouse IgG, kappa light chain; also called clone #22; purified antibody 22
B8: antibody 34 (antibody, V domains shown)
VH: QVTLKESGPGILQPSQTLSLTCSFSGFSLSTFSLGVGWIRQSSGKGLEWLAHIWWDDEKYYNPALKSRLTISKDTSKNQVFLKIANVDAADTATYYCARAYYSKSYYALDYWGQGTSVTVSS
VL: DIQMTQSPSSLSASLGERVSLTCRASQEISGYLSWLQQKPDGTIKRLIYAASTLDSGVPKRFSGSRSGSDYSLAISSLESEDFADYYCLQYANFPFTFGSGTKLEIK
notes: mouse IgG, kappa light chain; also called clone #34; purified antibody 34

The target in the experiment is T1, hiR2-FL-K536-T7 (deletion of K536). The experiment in a line: FACS, MEF-DKO cells, 3 µg/ml. An excerpt:
In brief, immortalized MEF-DKO-hiR2-FL-G498A-T7, MEF-DKO-hiR2-FL-Q502R-T7, MEF-DKO-hiR2-FL-I509V-T7, MEF-DKO-hiR2-FL-Q512S-T7, MEF-DKO-hiR2-FL-R513E-T7, MEF-DKO-hiR2-FL-K514E-T7, MEF-DKO-hiR2-FL-D515E-T7, MEF-DKO-hiR2-FL-E518S-T7, MEF-DKO-hiR2-FL-T522V-T7, MEF-DKO-hiR2-FL-F523W-T7, MEF-DKO-hiR2-FL-Q527P-T7, MEF-DKO-hiR2-FL-D528I-T7, MEF-DKO-hiR2-FL-D529H-T7, MEF-DKO-hiR2-FL-T530P-T7, MEF-DKO-hiR2-FL-G531S-T7, MEF-DKO-hiR2-FL-P532A-T7, MEF-DKO-hiR2-FL-M534-T7, MEF-DKO-hiR2-FL-D535-T7, MEF-DKO-hiR2-FL-K536-T7, MEF-DKO-hiR2-FL-S537E-T7, MEF-DKO-hiR2-FL-D538L-T7, MEF-DKO-hiR2-FL-L539A-T7, MEF-DKO-hiR2-FL-Q541H-T7, MEF-DKO-hiR2-FL-T544Q-T7, MEF-DKO-hiR2-FL-S545F-T7, MEF-DKO-hiR2-FL-A547S-T7, MEF-DKO-hiR2-FL-T555V-T7, MEF-DKO-hiR2-FL-E557D-T7, MEF-DKO-hiR2-FL-A560S-T7 and MEF-DKO-hiR2-FL-S562E-T7 cells were harvested with 10 mM EDTA in PBS, washed and resuspended in FACS buffer (PBS, 3% FBS, 0.05% sodium azide), and seeded in Nunc U-bottom 96-well plates (Thermo Fisher Scientific, USA) at approximately 3×10⁵ cells per well. To pellet cells and remove supernatants, the plates were centrifuged at 1,500 rpm and 4° C. for 3 minutes. For primary staining, cells were resuspended in 100 μl per well of either FACS buffer alone (controls) or the purified antibodies 3, 5, 16, 22, 34, 42, 43, 44, 48, and 50 of the invention at 3 μg/ml in FACS buffer and incubated on ice for 1 hour. Afterwards, plates were centrifuged at 1,500 rpm and 4° C. for 3 minutes and washed twice with 200 μl per well of FACS buffer. For secondary staining, cells were spun down and resuspended in 100 μl per well of PE-conjugated goat anti-mouse IgG F(ab′)2 detection fragment (Dianova, Germany) diluted 1:100 in FACS buffer. Protected from light, the cell suspensions were incubated on ice for 1 hour. Plates were then centrifuged at 1,500 rpm and 4° C. for 3 minutes and washed three times with 200 μl per well of FACS buffer. Finally, cells were resuspended in 150 μl per well of FACS buffer and analyzed using a BD Accuri™ C6 Plus flow cytometer (Becton Dickinson, Germany).
(In flow cytometry, cells or beads pass a laser one at a time.)
Consider B1, for which the “loss of binding vs wild type” value is at least 95%. Under B2 stands at least 95%; under B3, at least 95%. Under B4 stands at least 95%. Under B5 stands at least 95%. Take B6: the “loss of binding vs wild type” value was at least 95%.

For the molecule B7, the “loss of binding vs wild type” value was at least 95%. Consider B8, for which the “loss of binding vs wild type” value was at least 95%.

These data come from US20240287172A1 (SCIRHOM, published 2024).
